Test [1] deals with T1, HCoV-OC43 spike protein (HCoV-OC43, UniProt P36334 14-1297).
T1 sequence: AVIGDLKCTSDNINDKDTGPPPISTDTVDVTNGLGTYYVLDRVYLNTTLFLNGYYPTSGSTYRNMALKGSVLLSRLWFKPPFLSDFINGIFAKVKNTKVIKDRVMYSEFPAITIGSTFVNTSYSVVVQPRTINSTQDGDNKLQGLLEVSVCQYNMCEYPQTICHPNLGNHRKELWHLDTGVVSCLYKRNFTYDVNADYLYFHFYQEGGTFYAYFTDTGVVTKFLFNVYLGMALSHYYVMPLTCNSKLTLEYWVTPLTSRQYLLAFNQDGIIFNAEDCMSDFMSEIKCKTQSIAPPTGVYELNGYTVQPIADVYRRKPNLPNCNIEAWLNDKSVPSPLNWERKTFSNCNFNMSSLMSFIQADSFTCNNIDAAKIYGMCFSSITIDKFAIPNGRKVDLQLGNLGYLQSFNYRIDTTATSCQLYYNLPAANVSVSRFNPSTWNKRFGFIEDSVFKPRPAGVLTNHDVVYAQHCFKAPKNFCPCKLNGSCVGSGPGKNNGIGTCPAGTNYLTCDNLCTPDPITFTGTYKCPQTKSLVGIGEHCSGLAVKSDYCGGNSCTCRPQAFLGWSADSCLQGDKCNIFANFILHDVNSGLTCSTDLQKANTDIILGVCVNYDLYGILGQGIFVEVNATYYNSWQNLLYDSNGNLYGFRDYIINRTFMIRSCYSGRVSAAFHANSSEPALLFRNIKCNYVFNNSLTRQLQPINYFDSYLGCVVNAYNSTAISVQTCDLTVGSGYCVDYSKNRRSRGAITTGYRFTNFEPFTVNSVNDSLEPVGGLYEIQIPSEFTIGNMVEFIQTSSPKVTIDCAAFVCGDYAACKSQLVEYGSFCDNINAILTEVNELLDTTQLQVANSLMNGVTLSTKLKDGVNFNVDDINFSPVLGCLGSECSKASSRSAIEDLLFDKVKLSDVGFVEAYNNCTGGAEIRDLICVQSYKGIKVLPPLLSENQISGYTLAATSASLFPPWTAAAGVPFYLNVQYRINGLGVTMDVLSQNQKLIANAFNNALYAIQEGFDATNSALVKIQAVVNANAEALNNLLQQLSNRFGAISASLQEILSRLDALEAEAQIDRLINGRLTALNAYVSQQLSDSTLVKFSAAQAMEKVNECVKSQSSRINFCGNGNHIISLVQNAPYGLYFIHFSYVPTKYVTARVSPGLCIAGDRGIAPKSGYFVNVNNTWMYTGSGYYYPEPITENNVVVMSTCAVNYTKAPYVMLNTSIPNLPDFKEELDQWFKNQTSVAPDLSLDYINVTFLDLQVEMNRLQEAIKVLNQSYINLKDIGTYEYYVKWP
The experiment in a line: bead flow cytometry, AUC minus CD4. In general terms: A flow cytometer gives signals particle by particle.

Test [2] deals with T2, SARS-CoV-2 spike S2 subunit, recombinant (SARS-CoV-2, UniProt P0DTC2 686-1213).
T2 construct: domain: S2 subunit
In words: bead flow cytometry, AUC minus CD4.

B1: COV23-01 (antibody, V domains shown)
VH: QVTLKESGPVLVKPTETLTLTCTVSGFSLSNTKMGVSWIRQPPGKALEWLAHIFSNDRKSYTTSLKSRLTISEDTSKSQIVLTMTNMDPVDTATYYCARIGAGGTYNFYYYMDVWGKGTTVTVSS
VL: EIVLTQSPATLSLSPGERATLSCRASQSVSSYLAWYQQKPGQAPRLLIYDASNRATGIPARFSGSGSGTDFTLTISSLEPEDFAVYYCQQRSLYYTFGQGTKLEIK
As for B1, the binding result in test [1] is listed as “no binding (tested: 200 µg/mL)”.

B2: COV49-54 (antibody, V domains shown)
VH: EVQLVESGGGLVQPGGSLRLSCAASGFIVSSNYMSWVRQAPGKGLEWVSMIYSGGSTVYADSVKGRFTISRDISKNTLYLQMNSLRAEDTAVYYCALETFDYWGQGTLVTVSS
VL: DIQMTQSPSSLSASVGDRVTITCRASQGITNHLAWYQQKPGKVPKLLIYAASTLQSGVPSRFSGSGYGTDFTLTISSLQPEDVASYYCQKYDSAPRTFGQGTKVEIK
For B2, the binding result in test [2] is recorded as “no binding (tested: 200 µg/mL)”.
